Experimental data: patent US20100278929A1 (MEDLMMUNE, published 2010)
Residue numbers refer to the chain shown, from its start. Names may count otherwise.

B1: palivizumab (antibody, V domains shown)
VH: QVTLRESGPALVKPTQTLTLTCTFSGFSLSTSGMSVGWIRQPPGKALEWLADIWWDDKKDYNPSLKSRLTISKDTSKNQVVLKVTNMDPADTATYYCARSMITNWYFDVWGAGTTVTVSS
VL: DIQMTQSPSTLSASVGDRVTITCKCQLSVGYMHWYQQKPGKAPKLLIYDTSKLASGVPSRFSGSGSGTEFTLTISSLQPDDFATYYCFQGSGYPFTFGGGTKLEIK
notes: also called SYNAGIS
B2: A4B4L1FR-S28R (motavizumab) (antibody, V domains shown)
VH: B1 VH with S32A, D60H, S67D, S100D, T103F, W105F, A112Q
VL: B1 VL with K24S, C25A, Q26S, L27S, S28R, L103V

Columns and labels:
[1] = target: T1, RSV (Long strain) F protein on infectious virus (respiratory syncytial virus (Long …, UniProt P12568 26-574)); test: cell-based or functional assay
[2] = target: T1, RSV (Long strain) F protein on …; test: cell-based or functional assay; remark: listed apart in the source
[3] = target: T2, recombinantly produced, C-terminally truncated RSV (A2 strain) F protein (respiratory syncytial virus (A2 strain), UniProt P03420 26-524); test: SPR, BIAcore 3000; F protein coupled at low density to CM5 chip; KD = koff/kon
T2 construct: extracellular domain; also called RSV F protein; truncated F protein
Experimental: (§1) Purified F protein was covalently coupled to an N-hydroxysuccinimide-N-ethyl-N′-[3-diethylaminopropyl]-carbodiimide (EDC/NHS) activated CM5 sensor chip at a low protein density according to the manufacturer's protocol; unreacted active ester groups were blocked with 1 M ethanolamine. For reference purposes, a blank surface, containing no antigen, was prepared under identical immobilization conditions.
(§2) For kinetic measurements, a serial 2-fold dilution series of each mAb from 100 nm-0.2 nm, made in instrument buffer (HBS/Tween-20, BIAcore, Inc.), was injected over the F-protein and reference cell surfaces, which are connected in series. In each analysis, following the dissociation phase, the remaining bound antibody was removed from the sensor chip by passing a brief pulse of 100 mM HCl over the surface. Once an entire data set was collected, the resulting binding curves were globally fitted to a 1:1 Langmuir binding model using BIAevaluation software (BIAcore, Inc., Piscataway, N.J.). This algorithm calculates both the association rate (kₒₙ) and the dissociation rate (koff), from which the apparent equilibrium binding constant, KD, for each antibody was deduced as the ratio of the two rate constants, koff/kₒₙ.

[4] = target: T2, recombinantly produced, C-terminally …; test: SPR, BIAcore 3000; F protein coupled at low density to CM5 chip, mAb injected at 100-0.2 nM; 1:1 Langmuir fit
Experimental: as §1, §2

[5] = target: T1, RSV (Long strain) F protein on …; test: cell-based or functional assay; remark: listed apart in the source
[6] = target: T1, RSV (Long strain) F protein on …; test: cell-based or functional assay; remark: listed apart in the source

T2 sequence (P03420 26-109, chain 1 of 2): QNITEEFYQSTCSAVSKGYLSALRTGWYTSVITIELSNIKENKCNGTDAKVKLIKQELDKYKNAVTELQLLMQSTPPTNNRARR
T2 sequence (P03420 137-524, chain 2 of 2): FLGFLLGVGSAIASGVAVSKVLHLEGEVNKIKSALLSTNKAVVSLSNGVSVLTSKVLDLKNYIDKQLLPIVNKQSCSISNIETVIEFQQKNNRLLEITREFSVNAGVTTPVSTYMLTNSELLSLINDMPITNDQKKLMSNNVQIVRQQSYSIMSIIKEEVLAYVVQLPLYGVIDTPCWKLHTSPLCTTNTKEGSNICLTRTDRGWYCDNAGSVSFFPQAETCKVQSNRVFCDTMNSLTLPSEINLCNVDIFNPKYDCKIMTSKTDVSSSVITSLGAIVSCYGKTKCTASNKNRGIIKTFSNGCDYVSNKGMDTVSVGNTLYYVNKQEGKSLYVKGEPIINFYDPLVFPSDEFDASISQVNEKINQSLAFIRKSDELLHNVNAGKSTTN

Binder	average IC50, RSV microneutralization assay [1]	Mean IC50 (Control), RSV microneutralization [2]	Mean IC50 (Curve), RSV microneutralization [2]	Kd [3]	koff [4]	kon [4]	IC50 (read off the curve) [5]	fold potency against palivizumab, RSV microneutralization assay [1]	IC50 (read off the curve); sample: Cyno-69 BAL [6]	IC50 (read off the curve); sample: purified MEDI-524 control [6]
B1	0.315 µg/mL	0.535 µg/mL	0.453 µg/mL	3.46 nM	0.000395 s⁻¹	114000 M⁻¹ s⁻¹	~0.4 µg/mL			
B2	0.018 µg/mL						~0.02 µg/mL	~18 fold	~0.01 µg/mL	~0.007 µg/mL
